Reference: PMC6033896 (Scientific Reports, 2018)

Target: T1, fluorescent labelled Bid BH3 peptide (fluorescent label (Flu- or FAM-), position not stated)
T1 construct: BH3 peptide derived from the pro-apoptotic protein Bid; The methods name two probes (Flu-Bid with Mcl-1); the two probes may differ in label and limits; also called Flu-Bid; FAM-Bid
Experiment: fluorescence polarisation; direct binding of the fluorescent Bid probe to recombinant protein; Ex 485 nm, Em 530 nm, room temperature; buffer of the Kd determination not told apart from the two competitive assay buffers
Details: both partners purified

Binder	Kd [nM]
recombinant Mcl-1 protein (wild type) (natural protein) EDELYRQSLEIISRYLREQATGAKDTKPMGRSGATSRKALETLRRVGDGVQRNHETAFQGMLRKLDIKNEDDVKSLSRVMIHVFSDGVTNWGRIVTLISFGAFVAKHLKTINQESCIEPLAESITDVLVRTKRDWLVKQRGWDGFVEFFHVEDLEGG	3 ± 0.1
recombinant Bcl-xL protein (natural protein) MSQSNRELVVDFLSYKLSQKGYSWSQFSDVEENRTEAPEGTESEVKQALREAGDEFELRYRRAFSDLTSQLHITPGTAYQSFEQVVNELFRDGVNWGRIVAFFSFGGALCVESVDKEMQVLVSRIAAWMATYLNDHLEPWIQENGGWDTFVELYGNNAAAESRKGQERFN	20 ± 2.3
